Measured values taken from US20060286609A1 (BIOCHECK, published 2006).

Tests used:
[1] = target: Human Id1: Histidine (human) (UniProt P41134); assay: sandwich ELISA, 5-3-coated wells, human Id1:His 1.0 ng/ml, detected with rabbit polyclonal B-5133-HRP
[2] = target: Human Id1: Histidine (human) (UniProt P41134); assay: sandwich ELISA, 5-3-coated wells, human Id1:His 50.0 ng/ml, detected with rabbit polyclonal B-5133-HRP
Human Id3: Histidine [3] = target: T1, Human Id3: Histidine (human, UniProt Q02535 1-119, limits assumed); assay: ELISA, coated antigen, Ab 5.00 ug/ml
T1 construct: E. coli fusion protein (vector pGW07); also called h-Id3: His; not shown: His-tag
T1 sequence (looked up): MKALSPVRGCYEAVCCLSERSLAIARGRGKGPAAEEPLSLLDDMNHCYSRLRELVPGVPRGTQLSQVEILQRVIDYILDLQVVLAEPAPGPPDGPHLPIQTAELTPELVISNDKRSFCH
Description: (§1) Incubate plates at 2-8° C. overnight (16-24 hours). [0145] 11. Shake off the BSA solution. [0146] 12. Dispense 250 μL of 2.5% sucrose solution into each well. [0147] 13. Incubate plates at 2-8° C. for 4 hours. [0148] 14. Shake off sucrose solution. [0149] 15. Dry in vacuum at room temperature overnight. Screening Method [0150] 1. Dispense 100 μL of antibody diluent, diluted rabbit polyclonal anti-Id1 into appropriate wells. […] 2. Incubate at room temperature with mechanical shaking at 750 rpm for 90 minutes. [0152] 3. Remove the incubation mixture by flicking plate content into an appropriate waste container, followed by rinsing the wells 5 times with distilled water. […] 4. Strike the wells sharply onto absorbent paper or paper towels to remove all residual water droplets. [0154] 5. Dispense 100 μL of Goat Anti-Rabbit IgG-HRP Conjugate Reagent into each well. Gently mix for 5 seconds. [0155] 6. Incubate at room temperature with mechanical shaking at 750 rpm for 90 minutes. […] 7. Repeat procedures 3 and 4. [0157] 8. Dispense 100 μL of TMB Reagent into each well. Gently mix for 5 seconds. [0158] 9. Incubate at room temperature with mechanical shaking at 750 rpm for 20 minutes. [0159] 10. Add 100 μL of Stop Solution (1N HCl) into each well. [0160] 11. Gently mix for 10 seconds to ensure a complete mixing. […] 12. Read optical density (absorbance) at 450 nm. Results from this assay were used to select the rabbit sera with the highest antibodies titer that selectively reacts with mouse Id1 or human Id1 or both.
(§2) A comparison was carried out between the reactivity of the rabbit monoclonal anti-mouse Id1, clone #BCH-1/#37-2, of this invention and the mouse monoclonal anti-mouse/human Id1 from BD Pharmingen with the following antigens prepared in Example 5: mouse Id1:His, human Id1:His, human Id2:His, human Id3:His, and GST. These antigens and protein were used to coat the wells.
(§3) Materials and methods were those described in Example 9 except (a) Pharmingen's mouse monoclonal anti-mouse Id1 was used in addition to the rabbit monoclonal anti-mouse Id1 (Example 10), and (b) goat anti-mouse IgG-HRP conjugate was used to process the wells treated with the Pharmingen monoclonal antibody and polyclonal goat anti-rabbit IgG-HRP conjugate was used to process wells treated with rabbit monoclonal anti-mouse Id1.

[4] = target: T2, glutathione S-transferase (GST) (UniProt P08515 1-218 = GST); assay: ELISA, coated antigen, Ab 5.00 ug/ml
T2 construct: Coated on wells as control for the fusion partner of the immunogen
Description: as §1, §2, §3

Mouse Id1: Histidine [5] = target: T3, Mouse Id1: Histidine (mouse, UniProt P20067-2 1-148); assay: ELISA, coated antigen, Ab 5.00 ug/ml
T3 construct: E. coli fusion protein (vector pGW07); also called m-Id1-His; not shown: His-tag
T3 sequence: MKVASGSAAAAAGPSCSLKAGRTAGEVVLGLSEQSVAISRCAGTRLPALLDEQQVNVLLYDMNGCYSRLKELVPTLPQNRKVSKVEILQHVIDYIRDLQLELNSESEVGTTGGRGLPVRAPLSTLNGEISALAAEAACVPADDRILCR
Description: as §1, §2, §3

Human Id2: Histidine [6] = target: T4, Human Id2: Histidine (human, UniProt Q02363 1-134, limits assumed); assay: ELISA, coated antigen, Ab 5.00 ug/ml
T4 construct: E. coli fusion protein (vector pGW07); also called h-Id2: His; not shown: His-tag
T4 sequence (looked up): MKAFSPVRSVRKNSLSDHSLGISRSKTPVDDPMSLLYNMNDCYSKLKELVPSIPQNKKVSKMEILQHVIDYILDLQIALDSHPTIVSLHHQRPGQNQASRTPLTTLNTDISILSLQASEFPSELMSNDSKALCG
Description: as §1, §2, §3

Human Id3: Histidine [7] = target: T1, Human Id3: Histidine; assay: ELISA, coated antigen, Ab 0 ug/ml (blank)
Description: as §1, §2, §3

[8] = target: T2, glutathione S-transferase (GST); assay: ELISA, coated antigen, Ab 0 ug/ml (blank)
Description: as §1, §2, §3

Mouse Id1: Histidine [9] = target: T3, Mouse Id1: Histidine; assay: ELISA, coated antigen, Ab 0 ug/ml (blank)
Description: as §1, §2, §3

Human Id2: Histidine [10] = target: T4, Human Id2: Histidine; assay: ELISA, coated antigen, Ab 0 ug/ml (blank)
Description: as §1, §2, §3

[11] = target: Human Id1: Histidine (human) (UniProt P41134); assay: ELISA, coated antigen, Ab 0.25 ug/ml
Human Id3: Histidine [12] = target: T1, Human Id3: Histidine; assay: ELISA, coated antigen, Ab 0.10 ug/ml
Description: as §1, §2, §3

[13] = target: T2, glutathione S-transferase (GST); assay: ELISA, coated antigen, Ab 0.10 ug/ml
Description: as §1, §2, §3

Mouse Id1: Histidine [14] = target: T3, Mouse Id1: Histidine; assay: ELISA, coated antigen, Ab 0.10 ug/ml
Description: as §1, §2, §3

Human Id2: Histidine [15] = target: T4, Human Id2: Histidine; assay: ELISA, coated antigen, Ab 0.10 ug/ml
Description: as §1, §2, §3

[16] = target: Human Id1: Histidine (human) (UniProt P41134); assay: ELISA, coated antigen; relative to mouse Id1
[17] = target: Human Id1: Histidine (human) (UniProt P41134); assay: ELISA, coated antigen, Ab 10.0 ug/ml
[18] = target: Human Id1: Histidine (human) (UniProt P41134); assay: ELISA, coated antigen, Ab 5.00 ug/ml

T2 sequence (P08515 whole entry, the tested form may be a part): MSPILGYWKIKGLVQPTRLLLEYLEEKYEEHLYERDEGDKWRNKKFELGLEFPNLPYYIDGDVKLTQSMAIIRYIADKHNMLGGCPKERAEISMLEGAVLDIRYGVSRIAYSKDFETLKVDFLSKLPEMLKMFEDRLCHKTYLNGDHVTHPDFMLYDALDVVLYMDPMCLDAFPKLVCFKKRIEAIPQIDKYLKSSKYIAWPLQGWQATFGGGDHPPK
Chain of Human Id1: Histidine (human) (P41134 whole entry): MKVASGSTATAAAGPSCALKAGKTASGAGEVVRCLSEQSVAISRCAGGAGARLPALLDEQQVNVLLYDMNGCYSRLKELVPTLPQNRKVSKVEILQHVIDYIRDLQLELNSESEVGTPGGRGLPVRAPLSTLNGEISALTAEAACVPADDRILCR

| Molecule | A450 [1] | A450 [2] | A450 (Human Id3: Histidine [3]) | A450 [4] | A450 (Mouse Id1: Histidine [5]) | A450 (Human Id2: Histidine [6]) | A450 (Human Id3: Histidine [7]) | A450 [8] | A450 (Mouse Id1: Histidine [9]) | A450 (Human Id2: Histidine [10]) | A450 [11] | A450 (Human Id3: Histidine [12]) | A450 [13] | A450 (Mouse Id1: Histidine [14]) | A450 (Human Id2: Histidine [15]) | Cross-reactivity (%) [16] | A450 [17] | A450 [18] |
| --- | --- | --- | --- | --- | --- | --- | --- | --- | --- | --- | --- | --- | --- | --- | --- | --- | --- | --- |
| rabbit monoclonal anti-human Id1, clone #BCH-2/#5-3 (antibody) | 0.124 A450 | 3.15 A450 |  |  |  |  |  |  |  |  |  |  |  |  |  |  |  |  |
| rabbit monoclonal anti-mouse Id1, clone #BCH-1/#37-2 (antibody, V domains shown, Rabbit IgG from hybridoma, Protein G purified; also called m Id1 MoAb 37-2; Rabbit Monoclonal Anti-Mouse Id1 (#37-2)) VH: QSVEESGGRLVTPGTPLTLTCKVSGFDINSYAMDWFRQAPGKGLEWIGMMSTRGNTYYTSWAKGRFTISKTSSTTVDLKMTSLTTEDTATYFCARGGLWGPGTLVTVSS VL: RVLTQTASPVSAAVGGTVTINCQASQSVYNGNRLGWYQLKPGQSPKELIHDASTLASGVPSRFRGSGSGTQFTLTINDVQCDDAATYYCVGSYACSTGDCNVFGGGTEVVVK |  |  | 0.091 A450 | 0.086 A450 | 3.26 A450 | 0.083 A450 | 0.046 A450 | 0.047 A450 | 0.047 A450 | 0.045 A450 | 0.07 A450 | 0.048 A450 | 0.047 A450 | 1.29 A450 | 0.049 A450 | < 1% | 0.194 A450 | 0.153 A450 |
